Patent US20030125523A1 (VEGENICS, published 2003)

Tests used:
[1] = biological target: NP-1 expressed on PAE-NP-1 cells (UniProt O14786); assay: competition of 125I-hVEGF165 (1 ng/ml) binding to PAE-NP-1 cells by 20 µg/ml GST fusion
[2] = biological target: T1, soluble Neuropilin-1-Ig fusion protein (extracellular domain of mouse NP-1 fused to the human IgG Fc-part) (mouse; human, UniProt P97333 22-856); assay: precipitation of 35S-labelled growth factor from conditioned medium with NP-1-Ig on protein A sepharose, SDS-PAGE
T1 construct: extracellular domain; Made in transfected 293T cells and captured on protein A sepharose; also called NP-1-Ig; soluble NP-1-Ig; not shown: human IgG Fc-part encoded by the pIgplus vector (Ingenius)
T1 sequence (looked up): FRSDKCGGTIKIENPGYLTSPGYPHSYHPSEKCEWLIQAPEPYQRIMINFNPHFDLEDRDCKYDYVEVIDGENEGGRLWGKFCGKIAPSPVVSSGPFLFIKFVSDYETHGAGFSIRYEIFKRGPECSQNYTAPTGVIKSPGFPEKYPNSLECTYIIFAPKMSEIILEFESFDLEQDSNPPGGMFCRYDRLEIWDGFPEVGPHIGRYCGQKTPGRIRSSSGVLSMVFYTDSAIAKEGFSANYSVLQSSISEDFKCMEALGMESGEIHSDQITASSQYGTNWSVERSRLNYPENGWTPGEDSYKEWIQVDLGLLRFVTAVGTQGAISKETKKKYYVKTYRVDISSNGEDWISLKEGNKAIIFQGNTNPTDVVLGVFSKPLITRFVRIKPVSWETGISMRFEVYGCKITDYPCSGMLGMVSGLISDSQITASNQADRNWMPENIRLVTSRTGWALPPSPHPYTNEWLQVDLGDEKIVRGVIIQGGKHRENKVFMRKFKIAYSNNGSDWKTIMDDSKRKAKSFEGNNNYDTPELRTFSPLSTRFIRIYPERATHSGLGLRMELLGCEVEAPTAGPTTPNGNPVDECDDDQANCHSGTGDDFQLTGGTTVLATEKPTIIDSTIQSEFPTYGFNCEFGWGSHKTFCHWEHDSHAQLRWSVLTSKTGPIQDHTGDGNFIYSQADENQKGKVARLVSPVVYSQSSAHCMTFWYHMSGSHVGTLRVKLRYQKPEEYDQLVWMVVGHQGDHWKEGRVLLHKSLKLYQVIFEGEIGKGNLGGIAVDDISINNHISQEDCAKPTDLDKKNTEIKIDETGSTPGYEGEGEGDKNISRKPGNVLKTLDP

[3] = biological target: T1, soluble Neuropilin-1-Ig fusion protein …; assay: precipitation of 35S-labelled growth factor with NP-1-Ig on protein A sepharose, SDS-PAGE (FIG. 7)
[4] = biological target: T1, soluble Neuropilin-1-Ig fusion protein …; assay: precipitation of 35S-labelled growth factor from conditioned medium with NP-1-Ig on protein A sepharose, SDS-PAGE (FIG. 3)
Protocol: 293-T or 293EBNA cells were similarly transfected with plasmids encoding hVEGF₁₆₅, mVEGF-B₁₆₇, mVEGF-B₁₈₆, hVEGF-C, hVEGF-D, PlGF-1 or PlGF-2, and the transfected cells were metabolically labeled 24 hours post transfection with 100 μCi/ml Pro-mix TML-³⁵S (Amersham) for 6 to 7 hours. 10 μg/ml heparin was added to the labeling medium to facilitate the release of the heparin sulphate-binding growth factors from the cell surface and pericellular matrix. Metabolically labeled media, with the exception of the medium used for VEGF transfection, were immunodepleted of endogenous VEGF by immunoprecipitating with VEGF antibody for two hours. Similar amounts of media containing the metabolically labeled growth factors were then used for immunoprecipitation or for receptor binding analysis. Growth factors were incubated for 3 hours at room temperature with receptor-Igs in binding buffer (phosphate buffered saline (PBS), 0.5% BSA, 0.2% Tween 20). The sepharose beads were then washed once with ice cold binding buffer and three times with PBS and analyzed by 15% SDS-PAGE.
Immunoprecipitations were carried out using specific antibodies against VEGF₁₆₅, VEGF-B₁₆₇, VEGF-B₁₈₆, VEGF-C, VEGF-D and protein A sepharose. […] In contrast, no significant binding was detected between NP-1-Ig and hVEGF-D or PlGF-1. […]

[5] = biological target: T1, soluble Neuropilin-1-Ig fusion protein …; assay: precipitation of 35S-labelled growth factor with NP-1-Ig on protein A sepharose, SDS-PAGE (FIG. 6)

Sequence of NP-1 expressed on PAE-NP-1 cells (O14786 22-923 limits assumed): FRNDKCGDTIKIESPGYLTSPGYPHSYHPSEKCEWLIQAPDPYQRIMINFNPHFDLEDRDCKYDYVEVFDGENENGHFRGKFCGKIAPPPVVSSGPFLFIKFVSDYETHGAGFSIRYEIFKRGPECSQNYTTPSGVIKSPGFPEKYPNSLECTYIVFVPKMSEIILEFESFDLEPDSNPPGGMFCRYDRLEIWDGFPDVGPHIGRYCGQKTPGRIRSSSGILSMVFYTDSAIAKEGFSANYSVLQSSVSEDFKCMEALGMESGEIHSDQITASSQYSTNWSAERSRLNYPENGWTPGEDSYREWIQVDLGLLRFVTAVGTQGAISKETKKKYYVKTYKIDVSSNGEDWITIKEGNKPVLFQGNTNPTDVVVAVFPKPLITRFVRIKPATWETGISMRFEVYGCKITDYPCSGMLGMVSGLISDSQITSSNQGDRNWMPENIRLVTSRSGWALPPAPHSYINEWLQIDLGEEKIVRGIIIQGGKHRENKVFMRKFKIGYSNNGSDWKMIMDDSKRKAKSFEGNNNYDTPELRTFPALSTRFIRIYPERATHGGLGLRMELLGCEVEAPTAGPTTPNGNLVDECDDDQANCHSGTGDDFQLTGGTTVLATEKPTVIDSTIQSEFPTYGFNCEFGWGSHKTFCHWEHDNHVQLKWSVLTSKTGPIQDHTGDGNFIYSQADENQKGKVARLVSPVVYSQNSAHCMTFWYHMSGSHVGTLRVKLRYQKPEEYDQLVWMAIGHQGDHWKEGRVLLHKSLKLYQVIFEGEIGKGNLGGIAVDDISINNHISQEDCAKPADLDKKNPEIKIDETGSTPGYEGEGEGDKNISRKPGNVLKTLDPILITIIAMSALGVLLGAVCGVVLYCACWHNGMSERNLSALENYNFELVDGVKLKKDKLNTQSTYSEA

## GST-VEGF-B167 exon 6B fusion protein (GST fused to amino acids 117-161 of mVEGF-B167) (from UniProt P49766 117-161)
[1]
  percent competition: 50%

B1: human VEGF165 (ligand, UniProt P15692-4 27-191, looked up)
chain: APMAEGGGQNHHEVVKFMDVYQRSYCHPIETLVDIFQEYPDEIEYIFKPSCVPLMRCGGCCNDEGLECVPTEESNITMQIMRIKPHQGQHIGEMSFLQHNKCECRPKKDRARQENPCGPCSERRKHLFVQDPQTCKCSCKNTDSRCKARQLELNERTCRCDKPRR
notes: also called hVEGF165; rhVEGF165
[2]
  binding result: binds

B2: human VEGF-C (full length) (ligand, UniProt P49767 32-419, looked up)
chain: FESGLDLSDAEPDAGEATAYASKDLEEQLRSVSSVDELMTVLYPEYWKMYKCQLRKGGWQHNREQANLNSRTEETIKFAAAHYNTEILKSIDNEWRKTQCMPREVCIDVGKEFGVATNTFFKPPCVSVYRCGGCCNSEGLQCMNTSTSYLSKTLFEITVPLSQGPKPVTISFANHTSCRCMSKLDVYRQVHSIIRRSLPATLPQCQAANKTCPTNYMWNNHICRCLAQEDFMFSSDAGDDSTDGFHDICGPNKELDEETCQCVCRAGLRPASCGPHKELDRNSCQCVCKNKLFPSQCGANREFDENTCQCVCKRTCPRNQPLNPGKCACECTESPQKCLLKGKKFHHQTCSCYRRPCTNRQKACEPGFSYSEEVCRCVPSYWKRPQMS
notes: 35S labelled, from conditioned medium of transfected cells; also called hVEGF-C; full length VEGF-C
[3]
  binding result: binds

B3: mouse VEGF-B167 (ligand, UniProt P49766-2 22-188, looked up)
chain: PVSQFDGPSHQKKVVPWIDVYARATCQPREVVVPLSMELMGNVVKQLVPSCVTVQRCGGCCPDDGLECVPTGQHQVRMQILMIQYPSSQLGEMSLEEHSQCECRPKKKESAVKPDSPRILCPPCTQRRQRPDPRTCRCRCRRRRFLHCQGRGLELNPDTCRCRKPRK
notes: 35S metabolically labelled, from conditioned medium of transfected cells; also called mVEGF-B167
[2]
  binding result: binds

B4: PlGF-1 (ligand, UniProt P49763-2 19-149, looked up)
chain: LPAVPPQQWALSAGNGSSEVEVVPFQEVWGRSYCRALERLVDVVSEYPSEVEHMFSPSCVSLLRCTGCCGDENLHCVPVETANVTMQLLKIRSGDRPSYVELTFSQHVRCECRPLREKMKPERCGDAVPRR
notes: 35S labelled, from conditioned medium of transfected cells; also called placenta growth factor isoform 1
[4]
  binding result: no binding

B5: mVEGF-BkEx1-5 (ligand, mouse, UniProt P49766 22-136, looked up)
chain: PVSQFDGPSHQKKVVPWIDVYARATCQPREVVVPLSMELMGNVVKQLVPSCVTVQRCGGCCPDDGLECVPTGQHQVRMQILMIQYPSSQLGEMSLEEHSQCECRPKKKESAVKPD
notes: domain: exons 1-5; also called murine VEGF-BkEx1-5; construct containing exons 1-5 of murine VEGF-B
[5]
  binding result: no binding
